Data on five molecules can be found in US20160090401A1 (UNIVERSITY OF BRISTOL, published 2016).

Bridge positions count the residues as written; N and C are the ends. I, II: the chains in the order shown.

The chains are these.
B2: CC-Di-B (peptide)
peptide: Ac-GKIAALKKKNAALKQKIAALKQGYW-NH2
notes: Free module

In one data set the target is T1, CC-Tri3-CC-Di-BQ (N-terminal acetyl; C-terminal amide; Cys in an asymmetric disulfide with the Cys of the trimer chain; N-terminal acetyl; C-terminal amide; Cys in an asymmetric disulfide with the Cys of the CC-Di-BQ …).
T1 peptide 1: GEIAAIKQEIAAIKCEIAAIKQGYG
T1 peptide 2: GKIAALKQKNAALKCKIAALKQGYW
Description: mixing with the respective partner in PBS, 50 µM; SEM.

Data set [1] concerns the molecule itself. Description: CD spectroscopy of the peptide alone (no homomeric coiled coil).
The target of the data set “CC-Di-B” is B2. Description: CD-monitored thermal denaturation over a range of peptide concentrations, extrapolated to 20 °C; dissociation of the heterodimer (two-state).
A further data set has as its target T2, CC-Di-BI (N-terminal acetyl; C-terminal amide).
T2 construct: also called basic peptide of CC-Di-AIBI
T2 peptide: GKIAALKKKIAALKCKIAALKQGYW
Description: method not stated for this variant.

For the next data set, the target named is T3, CC-Di-AB (N-terminal acetyl (Ac-); C-terminal amide (printed -NH)).
T3 construct: also called heterodimer CC-Di-AB; heterodimeric coiled coil
T3 peptide 1: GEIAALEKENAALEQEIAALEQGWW
T3 peptide 2: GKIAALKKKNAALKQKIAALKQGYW
Description: CD thermal melting of the mixture, the same as the average of the two independent profiles.

Data set [2] deals with the molecule itself. Description: CD-monitored thermal denaturation over a range of peptide concentrations, extrapolated to 20 °C; dissociation of the homotrimer (two-state).

B1: CC-Tri3-CC-Di-AQ (other)
peptide 1: Ac-GEIAAIKQEIAAIKCEIAAIKQGYG-NH2
peptide 2: Ac-GEIAALEQENAALECEIAALEQGWW-NH2
modifications: disulfide I:15-II:15 (inferred)
Take B1: the binding result in the data set with CC-Tri3-CC-Di-BQ is reported as “binds”.

Consider B2, for which, in data set [1], the binding result is reported as “no binding (tested: micromolar range)”.

B3: CC-Di-A (peptide)
peptide: Ac-GEIAALEKENAALEQEIAALEQGWW-NH2
notes: Free module
For the molecule B3, the binding result in data set [1] was “no binding (tested: micromolar range)”. Further, in the data set with CC-Di-B, the Kd was 58.3 nM.

B4: CC-Di-AI (peptide)
peptide: Ac-GEIAALEKEIAALECEIAALEQGWW-NH2
notes: also called acidic peptide of CC-Di-AIBI
As for B4, the “affinity relative to the CC-Di-AB parent” value in the data set with CC-Di-BI was greater than 100 fold.

B5: CC-Tri3 (peptide)
peptide: Ac-GEIAAIKKEIAAIKQEIAAIKQGYG-NH2
notes: also called homotrimer CC-Tri3; homotrimeric coiled coil
In the case of B5, the binding result with CC-Di-AB was “no binding”. Also, the Kd in data set [2] was 0.0399 pM.
